Read-outs that look alike come from different tables or passages of the source.
B3: KIF3A purified from E. coli (natural protein, Mus musculus, UniProt P28741 1-701, looked up)
chain: MPINKSEKPESCDNVKVVVRCRPLNEREKSMCYRQAVSVDEMRGTITVHKTDSSNEPPKTFTFDTVFGPESKQLDVYNLTARPIIDSVLEGYNGTIFAYGQTGTGKTFTMEGVRAVPGLRGVIPNSFAHIFGHIAKAEGDTRFLVRVSYLEIYNEEVRDLLGKDQTQRLEVKERPDVGVYIKDLSAYVVNNADDMDRIMTLGHKNRSVGATNMNEHSSRSHAIFTITIECSEKGVDGNMHVRMGKLHLVDLAGSERQAKTGATGQRLKEATKINLSLSTLGNVISALVDGKSTHVPYRNSKLTRLLQDSLGGNSKTMMCANIGPADYNYDETISTLRYANRAKNIKNKARINEDPKDALLRQFQKEIEELKKKLEEGEEVSGSDISGSEEDDEEGELGEDGEKKKKRRDQAGKKKVSPDKMVEMQAKIDEERKALETKLDMEEEERNKARAELERREKDLLKAQQEHQSLLEKLSALEKKVIVGGVDLLAKAEEQEKLLEESNMELEERRRRAEQLRKELEEKEQERLDIEEKYTSLQEEAQGKTKKLKKVWTMLMAAKSEMADLQQEHQREIEGLLENIRQLSRELRLQMLIIDNFIPQDYQEMIENYVHWNEDIGEWQLKCVAYTGNNMRKQTPVPDKKERDPFEVDLSHVYLAYTEESLRQSLMKLERPRTSKGKARPKMGRRKRSAKPETVIDSLLQ

Experiments:
[1] = target: B3; experiment: SEC-MALS
[2] = target: full-length APC-GFP (Mus musculus, UniProt Q61315 1-2845); experiment: MST
[3] = target: the molecule itself
[4] = target: the molecule itself; experiment: SEC-MALS

full-length APC-GFP, sequence (Q61315 whole entry): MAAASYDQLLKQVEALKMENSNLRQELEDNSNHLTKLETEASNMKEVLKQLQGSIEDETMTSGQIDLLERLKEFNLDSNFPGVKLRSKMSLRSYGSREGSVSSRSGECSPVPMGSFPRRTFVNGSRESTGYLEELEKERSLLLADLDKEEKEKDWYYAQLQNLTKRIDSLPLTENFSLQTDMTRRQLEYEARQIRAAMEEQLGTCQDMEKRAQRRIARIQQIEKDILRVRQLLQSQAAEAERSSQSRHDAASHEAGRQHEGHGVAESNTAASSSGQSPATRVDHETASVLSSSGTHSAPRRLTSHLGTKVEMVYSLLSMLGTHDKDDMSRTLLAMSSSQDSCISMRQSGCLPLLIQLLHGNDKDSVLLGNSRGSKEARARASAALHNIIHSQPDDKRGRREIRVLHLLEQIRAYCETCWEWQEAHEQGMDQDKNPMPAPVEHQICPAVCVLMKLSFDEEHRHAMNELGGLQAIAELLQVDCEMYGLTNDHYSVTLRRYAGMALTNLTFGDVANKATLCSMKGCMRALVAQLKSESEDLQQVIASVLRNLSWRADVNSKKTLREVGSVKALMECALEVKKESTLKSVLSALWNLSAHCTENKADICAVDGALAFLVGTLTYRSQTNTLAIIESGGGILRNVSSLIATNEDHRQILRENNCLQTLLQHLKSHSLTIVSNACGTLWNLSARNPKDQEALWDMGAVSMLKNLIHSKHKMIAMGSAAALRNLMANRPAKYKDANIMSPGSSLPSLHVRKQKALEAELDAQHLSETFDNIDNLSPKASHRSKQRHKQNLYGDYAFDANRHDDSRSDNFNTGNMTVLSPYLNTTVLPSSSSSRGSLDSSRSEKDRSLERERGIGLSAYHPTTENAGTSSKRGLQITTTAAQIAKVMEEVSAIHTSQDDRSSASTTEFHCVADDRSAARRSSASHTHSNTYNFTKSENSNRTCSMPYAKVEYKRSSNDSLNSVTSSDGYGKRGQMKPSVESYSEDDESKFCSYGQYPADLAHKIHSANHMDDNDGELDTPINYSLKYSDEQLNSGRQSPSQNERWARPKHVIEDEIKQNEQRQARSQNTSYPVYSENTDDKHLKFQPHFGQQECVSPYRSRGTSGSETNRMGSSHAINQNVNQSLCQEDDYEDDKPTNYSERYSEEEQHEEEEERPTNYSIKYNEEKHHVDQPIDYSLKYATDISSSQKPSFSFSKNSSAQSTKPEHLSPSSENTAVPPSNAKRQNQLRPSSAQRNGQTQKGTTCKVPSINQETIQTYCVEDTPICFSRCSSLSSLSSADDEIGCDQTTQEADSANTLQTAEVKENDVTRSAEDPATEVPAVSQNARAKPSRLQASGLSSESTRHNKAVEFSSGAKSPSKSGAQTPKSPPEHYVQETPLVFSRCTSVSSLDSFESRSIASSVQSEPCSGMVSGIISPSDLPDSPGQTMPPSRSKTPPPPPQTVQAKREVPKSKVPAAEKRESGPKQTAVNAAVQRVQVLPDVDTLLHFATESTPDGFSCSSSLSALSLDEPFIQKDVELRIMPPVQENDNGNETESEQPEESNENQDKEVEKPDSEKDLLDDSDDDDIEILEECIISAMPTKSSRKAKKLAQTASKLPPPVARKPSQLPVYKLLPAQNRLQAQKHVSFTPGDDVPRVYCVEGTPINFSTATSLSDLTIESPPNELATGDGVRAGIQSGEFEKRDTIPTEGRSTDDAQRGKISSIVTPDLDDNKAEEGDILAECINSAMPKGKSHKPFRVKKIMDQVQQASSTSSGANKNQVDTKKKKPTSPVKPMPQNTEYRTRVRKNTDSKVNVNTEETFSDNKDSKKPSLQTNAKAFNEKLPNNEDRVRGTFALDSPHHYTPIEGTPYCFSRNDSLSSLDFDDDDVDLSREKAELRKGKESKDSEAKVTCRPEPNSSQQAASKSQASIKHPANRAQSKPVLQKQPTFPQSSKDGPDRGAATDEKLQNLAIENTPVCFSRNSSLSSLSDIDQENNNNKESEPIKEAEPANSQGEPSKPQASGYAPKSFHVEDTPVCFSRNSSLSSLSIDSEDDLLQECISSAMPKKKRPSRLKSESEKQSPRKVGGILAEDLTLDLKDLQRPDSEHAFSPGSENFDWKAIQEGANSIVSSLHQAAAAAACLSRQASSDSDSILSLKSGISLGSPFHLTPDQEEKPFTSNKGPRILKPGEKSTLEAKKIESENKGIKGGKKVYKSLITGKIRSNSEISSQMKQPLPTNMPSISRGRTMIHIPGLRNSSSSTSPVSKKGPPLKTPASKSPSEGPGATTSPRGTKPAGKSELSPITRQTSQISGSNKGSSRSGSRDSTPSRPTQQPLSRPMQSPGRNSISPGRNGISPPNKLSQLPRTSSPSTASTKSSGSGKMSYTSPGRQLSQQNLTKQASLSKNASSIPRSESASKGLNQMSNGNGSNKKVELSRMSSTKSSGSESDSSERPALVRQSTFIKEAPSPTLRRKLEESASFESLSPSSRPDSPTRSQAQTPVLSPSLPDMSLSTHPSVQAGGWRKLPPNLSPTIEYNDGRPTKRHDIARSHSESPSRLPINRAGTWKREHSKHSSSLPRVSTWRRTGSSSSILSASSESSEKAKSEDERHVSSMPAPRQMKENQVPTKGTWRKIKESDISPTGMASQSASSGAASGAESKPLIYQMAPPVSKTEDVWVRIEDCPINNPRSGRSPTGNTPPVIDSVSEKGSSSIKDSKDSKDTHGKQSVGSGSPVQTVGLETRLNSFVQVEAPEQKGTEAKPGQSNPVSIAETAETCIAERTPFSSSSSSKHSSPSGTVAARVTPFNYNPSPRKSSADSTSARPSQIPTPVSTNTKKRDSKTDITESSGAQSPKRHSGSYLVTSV

B1: KAP3 (separately purified) (natural protein, Mus musculus, UniProt P70188-1 1-793, looked up)
chain: MQGEDARYLKRKVKGGNIDVHPSEKALIVQYEVEATILGEMGDPMLGERKECQKIIRLKSLNANTDITSLARKVVEECKLIHPSKLSEVEQLLYYLQNRRDSLPGKEKKEKSSKPKDPPPFEGMEIDEVANINDMDEYIELLYEDIPDKVRGSALILQLARNPDNLEELLLNETALGALARVLREDWKQSVELATNIIYIFFCFSSFSHFHGLITHYKIGALCMNIIDHELKRHELWQEELSKKKKAVDEDLENQTLRKDYDKTFKKYQGLVVKQEQLLRVALYLLLNLAEDTRTELKMRNKNIVHMLVKALDRDNFELLILVVSFLKKLSIFMENKNDMVEMDIVEKLVKMIPCEHEDLLNITLRLLLNLSFDTGLRNKMVQVGLLPKLTALLGNENYKQIAMCVLYHISMDDRFKSMFAYTDCIPQLMKMLFECSDERIDLELISFCINLAANKRNVQLICEGNGLKMLMKRALKLKDPLLMKMIRNISQHDGPTKNLFIDYVGDLAAQISSDEEEEFVIECLGTLANLTIPDLDWELVLKEYKLVPFLKDKLKPGAAEDDLVLEVVIMIGTVSMDDSCAALLAKSGIIPALIELLNAQQEDDEFVCQIIYVFYQMVFHQATRDVIIKETQAPAYLIDLMHDKNNEIRKVCDNTLDIIAEYDEEWAKKIQSEKFRWHNSQWLEMVESRQLDESEQYLYGDDRIEPYIHEGDILERPDLFYNSDGLITSEGAISPDFFNDFHLQNGDVVGQHAFPGSLGMDGFGQPLGILGRPATAYGFRPDEPYYYSFGSR
stoichiometry N [1]: 1 KAP3 per KIF3A dimer
binding result [2]: binds

B2: homodimeric KIF3A-SNAP labelled with Alexa647 or TMR (natural protein, Mus musculus, UniProt P28741 1-701, looked up)
chain: MPINKSEKPESCDNVKVVVRCRPLNEREKSMCYRQAVSVDEMRGTITVHKTDSSNEPPKTFTFDTVFGPESKQLDVYNLTARPIIDSVLEGYNGTIFAYGQTGTGKTFTMEGVRAVPGLRGVIPNSFAHIFGHIAKAEGDTRFLVRVSYLEIYNEEVRDLLGKDQTQRLEVKERPDVGVYIKDLSAYVVNNADDMDRIMTLGHKNRSVGATNMNEHSSRSHAIFTITIECSEKGVDGNMHVRMGKLHLVDLAGSERQAKTGATGQRLKEATKINLSLSTLGNVISALVDGKSTHVPYRNSKLTRLLQDSLGGNSKTMMCANIGPADYNYDETISTLRYANRAKNIKNKARINEDPKDALLRQFQKEIEELKKKLEEGEEVSGSDISGSEEDDEEGELGEDGEKKKKRRDQAGKKKVSPDKMVEMQAKIDEERKALETKLDMEEEERNKARAELERREKDLLKAQQEHQSLLEKLSALEKKVIVGGVDLLAKAEEQEKLLEESNMELEERRRRAEQLRKELEEKEQERLDIEEKYTSLQEEAQGKTKKLKKVWTMLMAAKSEMADLQQEHQREIEGLLENIRQLSRELRLQMLIIDNFIPQDYQEMIENYVHWNEDIGEWQLKCVAYTGNNMRKQTPVPDKKERDPFEVDLSHVYLAYTEESLRQSLMKLERPRTSKGKARPKMGRRKRSAKPETVIDSLLQ
modifications: Alexa647 or TMR on the SNAP tag
stoichiometry N [3]: 2

B3
stoichiometry N [4]: 2

Reference: doi:10.1101/701250 (bioRxiv, 2019)
